From paper PMC10433963 come the findings set out here.

The target of experiment [1] is ^H7-SUMOClpC1^FLAG (recombinant ClpC1) (M. smegmatis) (UniProt A0R574).
Experiment [2] has the same target. The source holds these as a separate data set.

Sequence of ^H7-SUMOClpC1^FLAG (recombinant ClpC1) (M. smegmatis) (A0R574 whole entry): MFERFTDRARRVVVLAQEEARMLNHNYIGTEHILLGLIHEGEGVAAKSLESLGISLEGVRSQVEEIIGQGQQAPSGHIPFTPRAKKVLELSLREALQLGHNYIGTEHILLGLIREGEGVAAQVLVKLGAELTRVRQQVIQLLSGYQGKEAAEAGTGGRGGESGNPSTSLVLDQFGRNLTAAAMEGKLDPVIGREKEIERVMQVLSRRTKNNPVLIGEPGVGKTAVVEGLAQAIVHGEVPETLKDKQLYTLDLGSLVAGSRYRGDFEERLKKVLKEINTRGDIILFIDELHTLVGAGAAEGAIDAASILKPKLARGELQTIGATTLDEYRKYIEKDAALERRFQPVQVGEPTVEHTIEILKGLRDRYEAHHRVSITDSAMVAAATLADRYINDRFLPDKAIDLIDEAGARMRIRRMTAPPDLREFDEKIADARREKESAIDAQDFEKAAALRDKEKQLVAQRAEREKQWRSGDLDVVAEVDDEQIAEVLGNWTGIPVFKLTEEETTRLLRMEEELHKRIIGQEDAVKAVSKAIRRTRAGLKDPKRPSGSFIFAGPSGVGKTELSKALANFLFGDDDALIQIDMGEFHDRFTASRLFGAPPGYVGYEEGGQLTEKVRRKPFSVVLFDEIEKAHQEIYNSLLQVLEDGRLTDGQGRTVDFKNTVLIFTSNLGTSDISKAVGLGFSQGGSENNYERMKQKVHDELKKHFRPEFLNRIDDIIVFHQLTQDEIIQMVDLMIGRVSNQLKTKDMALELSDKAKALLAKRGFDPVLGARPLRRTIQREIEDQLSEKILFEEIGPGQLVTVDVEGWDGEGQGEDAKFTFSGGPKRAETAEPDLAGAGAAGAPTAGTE

Regarding “GFP appended with the last 13 residues of MSMEI_3879”, the Km of degradation by ClpC1P1P2, loss of GFP fluorescence, Michaelis-Menten analysis in experiment [1] is 5.97 µM.
Same read-out and setting: as for “GFP preceded by the first 13 residues of MSMEI_3879”, the figure is 19.1 µM.
For “GFP^MSMEI_3879 (MSMEI_3879 fused to the C terminus of GFP)”, in experiment [1], the Km of degradation by 1 uM ClpC1P1P2, loss of GFP fluorescence, Michaelis-Menten analysis was found to be 18.8 µM.
As for “MSMEI_3879 (recombinant) (natural protein)”, the degradation of 10 uM MSMEI 3879 by 1 uM ClpC1 and 1 uM ClpP1P2 in vitro, SDS-PAGE densitometry, protein hydrolyzed within 40 min in experiment [2] stood at 75%.
Take “^MSMEI_3879GFP (MSMEI_3879 fused to the N terminus of GFP)”: the Km of degradation by 1 uM ClpC1P1P2, loss of GFP fluorescence, Michaelis-Menten analysis in experiment [1] worked out at 2.06 µM.
